# Where two headings read alike, the source gives them in different places.
# B1: anti-N protein antibody C12 (antibody, V domains shown)
# VH: EVQLQESGGGLVRPGGSLKLSCAASGFTFSDYYMYWVRQTPEKRLEWVATISDGGRYSYYPDSVKGRFTVSRDNAKNNLYLQMSSLKSEDTAMYYCVRDRYDGWGSDFDVWGAGTTVTVS
# VL: DVQITQSPSSMYASLGERVTITCKASQDIKSYLSWYQQKPWKSPKTLIYYATSLADGVPSRFSGSGSGQDYSLTISSLESDDTATYYCLQHGESPWTFGGGTKLEIKR
# Tests used:
# [1] = biological target: T1, recombinant N protein of SARS-CoV-2 (whole length, 419 amino acids) (SARS-CoV-2, UniProt P0DTC9 1-419)
# T1 construct: also called SARS-CoV-2 N protein; SARS-CoV-2 nucleocapsid protein
# [2] = biological target: T1, recombinant N protein of SARS-CoV-2 …; remark: listed apart in the source
# [3] = biological target: T1, recombinant N protein of SARS-CoV-2 …; remark: listed apart in the source
# [4] = biological target: T1, recombinant N protein of SARS-CoV-2 …; remark: listed apart in the source
binder,measurement,setting,value
B1,luminescence amount ratio (10 ng/mL/0 ng/mL),[1],52.8
same,luminescence amount ratio (10 ng/mL/0 ng/mL),[2],22.8
same,luminescence amount ratio (10 ng/mL/0 ng/mL),[3],847
same,luminescence amount ratio (10 ng/mL/0 ng/mL),[4],1.3
